Results from the supplement of paper PMC9112550, “Optimization of the antimicrobial peptide Bac7 by deep mutational scanning” (BMC Biology, 2022).

These sequences were tested on Escherichia coli TOP10 (assay: shrunken log2 fold change of peptide-encoding DNA abundance (4.5 h post-induction vs induction); higher = less antimicrobial activity (less host growth inhibition)). Details: time post-induction: 4.5 h; library: site-saturation at positions 5, 18, 19, 20.
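Note: peptides expressed intracellularly from a pBAD plasmid library in pooled LB shake-flask culture, induced with 0.3% L-arabinose, DNA abundance read by NGS, three biological replicates, DESeq2 with apeglm shrinkage.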

| Sequence | shrunken log2 fold change |
| --- | --- |
| RRIRTRPPRLPRPRPRPGYRPRP | -0.0981 |
| RRIRCRPPRLPRPRPRPFLDPRP | -0.0521 |
| RRIRKRPPRLPRPRPRPSFMPRP | 1.94 |
| RRIRLRPPRLPRPRPRPKFEPRP | 0.0662 |
| RRIRRRPPRLPRPRPRPQYYPRP | -0.968 |
| RRIRGRPPRLPRPRPRPARCPRP | 0.749 |
| RRIRTRPPRLPRPRPRPTEYPRP | -0.245 |
| RRIRLRPPRLPRPRPRPEIWPRP | 0.198 |
| RRIRMRPPRLPRPRPRPGWYPRP | -0.277 |
| RRIRDRPPRLPRPRPRPMCRPRP | -0.0461 |
| RRIRSRPPRLPRPRPRPAEIPRP | -0.136 |
| RRIRRRPPRLPRPRPRPRTTPRP | 0.406 |
| RRIRYRPPRLPRPRPRPVDHPRP | -0.328 |
| RRIRQRPPRLPRPRPRPYNTPRP | -0.325 |
| RRIRIRPPRLPRPRPRPYFEPRP | -1.2 |
| RRIRCRPPRLPRPRPRPDSEPRP | 0.0197 |
| RRIRHRPPRLPRPRPRPNFSPRP | -0.415 |
| RRIRGRPPRLPRPRPRPMTCPRP | 0.133 |
| RRIRIRPPRLPRPRPRPADWPRP | 0.218 |
| RRIRWRPPRLPRPRPRPWPDPRP | 0.0849 |
| RRIRCRPPRLPRPRPRPRLCPRP | 0.427 |
| RRIRNRPPRLPRPRPRPRWGPRP | -0.0125 |
| RRIRMRPPRLPRPRPRPPWDPRP | 0.931 |
| RRIRGRPPRLPRPRPRPCGTPRP | 1.44 |
| RRIRFRPPRLPRPRPRPRSTPRP | 0.421 |

| Sequence | shrunken log2 fold change |
| --- | --- |
| RRIRHRPPRLPRPRPRPDALPRP | 0.227 |
| RRIRGRPPRLPRPRPRPDGWPRP | 1.34 |
| RRIRKRPPRLPRPRPRPSANPRP | 0.0126 |
| RRIRLRPPRLPRPRPRPGYSPRP | -0.314 |
| RRIRERPPRLPRPRPRPNEIPRP | -0.181 |
| RRIRARPPRLPRPRPRPFYVPRP | -0.383 |
| RRIRTRPPRLPRPRPRPASTPRP | -0.0927 |
| RRIRNRPPRLPRPRPRPALMPRP | 0.15 |
| RRIRWRPPRLPRPRPRPRYSPRP | -0.136 |
| RRIRNRPPRLPRPRPRPLSFPRP | -0.387 |
| RRIRQRPPRLPRPRPRPYCCPRP | -0.781 |
| RRIRNRPPRLPRPRPRPWRSPRP | 0.111 |
| RRIRTRPPRLPRPRPRPAMNPRP | -0.405 |
| RRIRARPPRLPRPRPRPTQIPRP | 0.553 |
| RRIRYRPPRLPRPRPRPRLCPRP | -0.0154 |
| RRIRTRPPRLPRPRPRPDHAPRP | 0.283 |
| RRIRKRPPRLPRPRPRPGHTPRP | 0.272 |
| RRIRRRPPRLPRPRPRPCEMPRP | 0.36 |
| RRIRQRPPRLPRPRPRPFIHPRP | -0.876 |
| RRIRQRPPRLPRPRPRPCSDPRP | -0.136 |
| RRIRWRPPRLPRPRPRPLHYPRP | -0.369 |
| RRIRGRPPRLPRPRPRPDMVPRP | -0.0595 |
| RRIRSRPPRLPRPRPRPDVEPRP | 0.00664 |
| RRIRHRPPRLPRPRPRPMFLPRP | -0.797 |
| RRIRWRPPRLPRPRPRPKKVPRP | 0.0465 |

| Sequence | shrunken log2 fold change |
| --- | --- |
| RRIRCRPPRLPRPRPRPEYSPRP | -0.38 |
| RRIRERPPRLPRPRPRPAYSPRP | -0.0646 |
| RRIRKRPPRLPRPRPRPDVGPRP | 0.0262 |
| RRIRMRPPRLPRPRPRPRNWPRP | 0.788 |
| RRIRARPPRLPRPRPRPTHIPRP | 0.36 |
| RRIRDRPPRLPRPRPRPRRLPRP | 0.472 |
| RRIRPRPPRLPRPRPRPTMEPRP | 0.0735 |
| RRIRHRPPRLPRPRPRPIKIPRP | -0.62 |
| RRIRLRPPRLPRPRPRPTKCPRP | -0.0436 |
| RRIRMRPPRLPRPRPRPCYGPRP | -0.534 |
| RRIRVRPPRLPRPRPRPPIEPRP | -0.115 |
| RRIRLRPPRLPRPRPRPPYEPRP | -0.468 |
| RRIRRRPPRLPRPRPRPHSRPRP | 0.163 |
| RRIRIRPPRLPRPRPRPDLKPRP | -0.194 |
| RRIRQRPPRLPRPRPRPMRQPRP | -0.0137 |
| RRIRFRPPRLPRPRPRPFHEPRP | -0.649 |
| RRIRCRPPRLPRPRPRPFIRPRP | -0.249 |
| RRIRCRPPRLPRPRPRPLSYPRP | -1.29 |
| RRIRKRPPRLPRPRPRPWARPRP | 0.704 |
| RRIRERPPRLPRPRPRPDQEPRP | -0.0156 |
| RRIRWRPPRLPRPRPRPRIDPRP | -0.0323 |
| RRIRDRPPRLPRPRPRPYMLPRP | -0.153 |
| RRIRLRPPRLPRPRPRPTPYPRP | -0.00235 |
| RRIRMRPPRLPRPRPRPMPPPRP | 1.07 |
| RRIRMRPPRLPRPRPRPYADPRP | 0.419 |

| Sequence | shrunken log2 fold change |
| --- | --- |
| RRIRARPPRLPRPRPRPYMGPRP | 0.0124 |
| RRIRDRPPRLPRPRPRPACEPRP | 0.58 |
| RRIRPRPPRLPRPRPRPCPIPRP | 0.082 |
| RRIRHRPPRLPRPRPRPRHRPRP | -0.029 |
| RRIRGRPPRLPRPRPRPEGIPRP | -0.0235 |
| RRIRARPPRLPRPRPRPVAHPRP | 0.159 |
| RRIRLRPPRLPRPRPRPRSLPRP | 0.0255 |
| RRIRYRPPRLPRPRPRPTNMPRP | -0.541 |
| RRIRSRPPRLPRPRPRPKMSPRP | -0.105 |
| RRIRCRPPRLPRPRPRPNKCPRP | -0.279 |
| RRIRLRPPRLPRPRPRPHYTPRP | -0.118 |
| RRIRSRPPRLPRPRPRPLDCPRP | -0.212 |
| RRIRNRPPRLPRPRPRPQDYPRP | 0.087 |
| RRIRMRPPRLPRPRPRPDGGPRP | 0.135 |
| RRIRHRPPRLPRPRPRPRMQPRP | 0.183 |
| RRIRMRPPRLPRPRPRPFLSPRP | -0.0215 |
| RRIRPRPPRLPRPRPRPLMFPRP | -0.138 |
| RRIRIRPPRLPRPRPRPKGWPRP | 0.364 |
| RRIRVRPPRLPRPRPRPMQPPRP | -0.0152 |
| RRIRSRPPRLPRPRPRPYRMPRP | -0.0162 |
| RRIRWRPPRLPRPRPRPLQSPRP | 0.153 |
| RRIRIRPPRLPRPRPRPCLGPRP | -0.157 |
| RRIRNRPPRLPRPRPRPFPLPRP | -0.0286 |
| RRIRRRPPRLPRPRPRPKCHPRP | 0.0704 |
| RRIRPRPPRLPRPRPRPGRMPRP | 0.318 |

| Sequence | shrunken log2 fold change |
| --- | --- |
| RRIRWRPPRLPRPRPRPENMPRP | -0.185 |
| RRIRTRPPRLPRPRPRPIPNPRP | 0.0695 |
| RRIRVRPPRLPRPRPRPARAPRP | 0.566 |
| RRIRIRPPRLPRPRPRPKDKPRP | -0.747 |
| RRIRFRPPRLPRPRPRPRRIPRP | -0.116 |
| RRIRDRPPRLPRPRPRPISGPRP | 0.0039 |
| RRIRARPPRLPRPRPRPYKMPRP | -0.821 |
| RRIRLRPPRLPRPRPRPYWKPRP | -0.0713 |
| RRIRYRPPRLPRPRPRPHIKPRP | -0.887 |
| RRIRHRPPRLPRPRPRPPFQPRP | 0.0923 |
| RRIRSRPPRLPRPRPRPGGQPRP | 0.279 |
| RRIRHRPPRLPRPRPRPIRAPRP | 0.0218 |
| RRIRHRPPRLPRPRPRPYQEPRP | -0.138 |
| RRIRNRPPRLPRPRPRPHDDPRP | 0.008 |
| RRIRCRPPRLPRPRPRPSKKPRP | -0.0938 |
| RRIRERPPRLPRPRPRPMLEPRP | 0.282 |
| RRIRPRPPRLPRPRPRPCSSPRP | -0.467 |
| RRIRLRPPRLPRPRPRPQNYPRP | -0.626 |
| RRIRVRPPRLPRPRPRPMNPPRP | -0.421 |
| RRIRWRPPRLPRPRPRPFNMPRP | -0.298 |
| RRIRRRPPRLPRPRPRPLSVPRP | 0.298 |
| RRIRKRPPRLPRPRPRPSRPPRP | 0.529 |
| RRIRARPPRLPRPRPRPTPEPRP | 0.694 |
| RRIRDRPPRLPRPRPRPNDDPRP | 0.226 |
| RRIRPRPPRLPRPRPRPESMPRP | 0.142 |

| Sequence | shrunken log2 fold change |
| --- | --- |
| RRIRQRPPRLPRPRPRPMPCPRP | -0.00136 |
| RRIRMRPPRLPRPRPRPISWPRP | 0.109 |
| RRIRDRPPRLPRPRPRPCNSPRP | -0.0276 |
| RRIRQRPPRLPRPRPRPPFLPRP | 0.186 |
| RRIRQRPPRLPRPRPRPCATPRP | -0.0476 |
| RRIRIRPPRLPRPRPRPLIFPRP | -0.562 |
| RRIRIRPPRLPRPRPRPWVYPRP | -0.341 |
| RRIRCRPPRLPRPRPRPSNVPRP | -0.608 |
| RRIRKRPPRLPRPRPRPKFWPRP | 0.798 |
| RRIRLRPPRLPRPRPRPGRRPRP | 0.363 |
| RRIRQRPPRLPRPRPRPPGKPRP | 0.0921 |
| RRIRIRPPRLPRPRPRPWQYPRP | -0.0758 |
| RRIRYRPPRLPRPRPRPGHIPRP | 0.0162 |
| RRIRIRPPRLPRPRPRPRNAPRP | 0.0687 |
| RRIRGRPPRLPRPRPRPHQRPRP | 0.23 |
| RRIRQRPPRLPRPRPRPQNYPRP | 0.0103 |
| RRIRWRPPRLPRPRPRPRHSPRP | 0.286 |
| RRIRERPPRLPRPRPRPPQMPRP | 0.208 |
| RRIRARPPRLPRPRPRPYKRPRP | -0.23 |
| RRIRPRPPRLPRPRPRPPSCPRP | -0.058 |
| RRIRNRPPRLPRPRPRPNSQPRP | -0.265 |
| RRIRFRPPRLPRPRPRPYQKPRP | -1.08 |
| RRIRMRPPRLPRPRPRPCTDPRP | -0.132 |
| RRIRQRPPRLPRPRPRPHHTPRP | -0.0489 |
| RRIRPRPPRLPRPRPRPQSMPRP | -0.609 |
